{"source": "paper PMC2690687", "biological_target": "Epstein-Barr Nuclear Antigen 1 (EBNA1), wild type (Epstein-Barr virus) (UniProt P03211)"}
{"substance": "Epstein-Barr Nuclear Antigen 1 (EBNA1), wild type (from UniProt P03211 1-641) (natural protein)", "values": [{"measurement": "transactivation of TKp-luciferase reporters with one to 20 EBNA1-binding sites, 20 sites over a single site, C33a cells", "result": 150, "unit": "fold"}]}
